Measured values taken from US20200071394A1.
Read-outs that look alike come from different tables or passages of the source.

What was measured:
[1] = biological target: Recombinant Human IL-17A, Sino Biological, 12047-HNAS (human) (UniProt Q16552); assay: indirect ELISA, human IL-17A coated
[2] = biological target: Recombinant Human IL-17A, Sino Biological, 12047-HNAS (human) (UniProt Q16552); assay: indirect ELISA, human IL-17A coated; remark: listed apart in the source
[3] = biological target: Recombinant Human IL-17A, Sino Biological, 12047-HNAS (human) (UniProt Q16552); assay: SPR (Biacore), antibody captured by anti-human antibody on the chip, IL-17A as analyte, 1:1 model
[4] = biological target: Recombinant Human IL-17A, Sino Biological, 12047-HNAS (human) (UniProt Q16552); assay: cell-based or functional assay

Recombinant Human IL-17A, Sino Biological, 12047-HNAS (human), sequence (Q16552 24-155 limits assumed, form in doubt): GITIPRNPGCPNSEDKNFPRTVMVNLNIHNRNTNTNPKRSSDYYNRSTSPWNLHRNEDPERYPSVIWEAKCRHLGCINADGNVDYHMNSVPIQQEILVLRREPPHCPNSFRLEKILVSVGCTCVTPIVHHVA

**Q.** What does the source list for “Novartis humanized anti-IL-17 antibody (Novartis mAb)”?
**A.** EC50 [1]: 0.0329 µg/mL; EC50 [2]: 0.0341 µg/mL; Kd [3]: 111 pM; koff [3]: 0.000161 s⁻¹; kon [3]: 1.46e+06 M⁻¹ s⁻¹; IC50 of IL-6 release by HT1080 cells stimulated with IL-17A and TNFα [4]: 0.52 µg/mL; IC80 of IL-6 release by HT1080 cells stimulated with IL-17A and TNFα [4]: 2.11 µg/mL; IC90 of IL-6 release by HT1080 cells stimulated with IL-17A and TNFα [4]: 4.8 µg/mL
